The target of this assay is T1, Bordetella bacteriophage major tropism determinant variant Mtd-P1 (Bordetella bacteriophage BPP-1), Q775D6.
T1 chain: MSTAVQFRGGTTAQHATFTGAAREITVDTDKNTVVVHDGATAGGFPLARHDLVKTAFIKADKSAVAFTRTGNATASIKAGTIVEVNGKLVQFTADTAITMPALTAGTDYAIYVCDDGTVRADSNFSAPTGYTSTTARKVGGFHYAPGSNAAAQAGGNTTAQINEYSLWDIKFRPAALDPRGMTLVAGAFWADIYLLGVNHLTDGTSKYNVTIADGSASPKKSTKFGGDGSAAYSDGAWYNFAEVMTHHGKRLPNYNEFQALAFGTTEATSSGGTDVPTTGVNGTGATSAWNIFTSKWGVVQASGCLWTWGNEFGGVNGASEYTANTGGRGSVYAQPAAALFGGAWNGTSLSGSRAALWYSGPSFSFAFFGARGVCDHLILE
Put plainly: crystal structure; Mtd-P1·Prn-E complex formed with ~1.6-fold molar excess of Mtd-P1 trimers over His-tagged Prn-E, isolated by Ni2+-chelation and Superdex 200; crystals at 25 °C in 2 M NaCl, 100 mM Tris pH 8.5, 200 mM Li2SO4; 3.16 Å. Conditions: remark: other sources report otherwise.

In general, stoichiometry N refers to the number of molecules, sites or subunits per partner or assembly.

B1: Bordetella bacteriophage major tropism determinant variant Mtd-P1, Q775D6 1-381 (natural protein)
chain: T1 chain
B1 showed a stoichiometry N of 3.

Source of the values: paper PMC2408619.
